Measurements published in patent US9364556B2, “Drug conjugate comprising drug linked to human c-Met antibody, and use therefor” (Korea Research Institute of Bioscience and Biotechnology, priority 2011, dated 2016).

B1: modified B7 antibody: B7 antibody with a cysteine residue added to the heavy-chain variable region (SEQ ID NO: 8); light-chain SEQ ID NO: 11 (antibody, V domains shown)
VH: MGWSYIILFLVATAADVHSQVQLQEWGAGLLKPSETLSLTCAVSGGSLSGHYWSWVRLPPGKGLEWIGEISHSGNTNYNSSLKSRASISIDTSKNEYSLNLKSVTAVDTAVYYCARFYGDYPSSYGMDVWGQGTTVTVSSC
VL: MGWSYIILFLVATAADVHSQSALTQPASVSGSPGQSITISCTGTISDIGTYDFVSWYQHKPGKAPKLLIFDVNNRPSGVSSRFSGSKSDNTASLSISGFQAEDEADYYCSSYTDNRGLVLFGGGTKLTVLRS
modifications: a heavy chain variable region with extra cysteine; a light chain variable region
B2: B7 antibody: c-Met-specific human whole IgG from B7 phage variable region; heavy-chain variable region SEQ ID NO: 7, light-chain SEQ ID NO: 11 (antibody, V domains shown)
VH: MGWSYIILFLVATAADVHSQVQLQEWGAGLLKPSETLSLTCAVSGGSLSGHYWSWVRLPPGKGLEWIGEISHSGNTNYNSSLKSRASISIDTSKNEYSLNLKSVTAVDTAVYYCARFYGDYPSSYGMDVWGQGTTVTVSS
VL: B1 VL
modifications: a heavy chain variable region; a light chain variable region

Target: T1, C-Met (Homo sapiens, UniProt P08581)
T1 construct: A549 cells, known to readily express the c-Met receptor; endogenous in cells; host or cells: A549 (endogenous); Cos-7 cells overexpressing c-Met
Experiment: FACS analysis of specific binding to c-Met
Settings: A549 cells and Cos-7 cells that overexpressed c-Met, antibody 1:100, 4° C., 1 hour, FIG. 11
Experimental: Whether the human modified B7 antibody according to the present invention easily binds specifically to c-Met was examined by FACS analysis. Each of A549 cells, known to readily express the c-Met receptor, and Cos-7 cells that overexpressed c-Met, was prepared, washed twice with PBS, detached by treatment with trypsin, washed again with PBS, and then suspended in PBS (PBA buffer) containing 1% BSA protein. Then, the cells were treated with the purified modified B7 antibody of Example 2 at 1:100 at 4° C. for 1 hour, after which the cells were washed with PBA buffer and precipitated by centrifugation at 8000 rpm for 1 minute. The washing and precipitation process was repeated three times. Then, the modified B7 antibody was treated for 20 minutes with a 1:100 dilution of secondary antibody (Invitrogen, Alexa Fluor 488 goat anti-human IgG, #A11013) that detects human antibody. The cells were washed in the same manner as described above and analyzed by FACS analyzer (BD Cantoll Flow Cytometer), and the results of the analysis are shown in FIG. 11.

T1 sequence (P08581 25-1390): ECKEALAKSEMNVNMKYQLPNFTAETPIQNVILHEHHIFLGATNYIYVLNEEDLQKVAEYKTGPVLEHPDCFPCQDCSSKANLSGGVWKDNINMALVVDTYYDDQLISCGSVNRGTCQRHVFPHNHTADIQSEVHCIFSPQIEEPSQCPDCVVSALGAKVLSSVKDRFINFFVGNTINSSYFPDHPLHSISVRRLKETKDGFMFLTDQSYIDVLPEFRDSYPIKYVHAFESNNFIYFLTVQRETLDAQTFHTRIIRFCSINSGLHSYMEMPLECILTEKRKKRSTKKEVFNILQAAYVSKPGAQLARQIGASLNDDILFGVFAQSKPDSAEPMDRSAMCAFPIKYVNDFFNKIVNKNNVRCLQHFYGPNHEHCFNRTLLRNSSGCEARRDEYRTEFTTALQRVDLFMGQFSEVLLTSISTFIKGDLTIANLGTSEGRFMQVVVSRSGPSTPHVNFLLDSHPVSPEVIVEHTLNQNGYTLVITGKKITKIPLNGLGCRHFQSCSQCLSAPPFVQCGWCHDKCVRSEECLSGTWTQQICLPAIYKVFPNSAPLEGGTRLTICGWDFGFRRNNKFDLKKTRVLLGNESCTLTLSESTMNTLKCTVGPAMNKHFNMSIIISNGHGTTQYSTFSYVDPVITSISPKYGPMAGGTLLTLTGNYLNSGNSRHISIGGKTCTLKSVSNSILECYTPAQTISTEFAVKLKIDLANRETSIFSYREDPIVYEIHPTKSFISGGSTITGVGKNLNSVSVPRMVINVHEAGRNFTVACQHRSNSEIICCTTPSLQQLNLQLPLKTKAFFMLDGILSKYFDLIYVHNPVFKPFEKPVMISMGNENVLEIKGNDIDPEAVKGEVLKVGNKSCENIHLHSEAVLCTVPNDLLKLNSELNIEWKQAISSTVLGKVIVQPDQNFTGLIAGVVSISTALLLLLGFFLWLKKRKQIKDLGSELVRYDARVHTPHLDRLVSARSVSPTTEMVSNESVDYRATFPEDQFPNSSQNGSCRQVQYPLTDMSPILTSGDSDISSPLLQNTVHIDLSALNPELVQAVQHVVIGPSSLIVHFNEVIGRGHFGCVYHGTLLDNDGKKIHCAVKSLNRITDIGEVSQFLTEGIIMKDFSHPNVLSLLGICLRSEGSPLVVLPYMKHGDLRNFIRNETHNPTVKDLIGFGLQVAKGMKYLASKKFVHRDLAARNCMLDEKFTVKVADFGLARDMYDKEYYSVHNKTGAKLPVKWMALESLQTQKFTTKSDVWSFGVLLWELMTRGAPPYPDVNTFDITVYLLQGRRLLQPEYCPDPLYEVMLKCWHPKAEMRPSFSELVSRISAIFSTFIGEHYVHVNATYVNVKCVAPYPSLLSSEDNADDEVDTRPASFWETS

Molecule	specific binding to c-Met by FACS	specific binding to c-Met by FACS (listed as original B7 antibody)
B1	did bind specifically to c-Met	
B2	bind specifically to c-Met	specifically recognizes c-Met
